Laboratory results from patent US20210163947.

Tested on: pdt-tagged sfGFP

## mf-Lon
  signal decay of pdt-tagged sfGFP (protein degradation) on mixing extracts: Increasing the concentration of mf-Lon and supplying additional ATP (a co-substrate for the reaction) results in some signal decay
